Experimental data reported in patent US6919086B1, “Graminae pollen allergen mutants for specific immunotherapy, and production and use of the same” (Merck Patent Gesellschaft mit, priority 1997, dated 2005).
Like-named read-outs stand apart in the source and are kept apart here. Each block holds one molecule with its values, some of them ahead of it.

What was measured:
[1] = target: IgE antibodies of the allergic patient serum pool We 6/97; test: EAST inhibition, serum pool We 6/97
[2] = target: IgE antibodies of the allergic patient serum pool Bor 18/100 (20 donors); test: EAST inhibition, serum pool Bor 18/100
[3] = target: IgE antibodies of the individual allergic patient serum II/3; test: EAST inhibition, individual serum II/3
[4] = target: IgE antibodies of the individual allergic patient serum II/12; test: EAST inhibition, individual serum II/12
[5] = target: IgE antibodies of the individual allergic patient serum II/17; test: EAST inhibition, individual serum II/17
[6] = test system: IgE antibodies of allergic patients; test: EAST inhibition test (IgE reactivity / allergenicity); type: binding, human; conditions: for IC50: read-out: Inhibition value 50% (concentration of the inhibitor at 50% inhibition); for Allergenic potency (Prel) 25%: relative to native Phl p 5b at 25% inhibition; for Allergenic potency (Prel) 50%: relative to native Phl p 5b at 50% inhibition
Method: The effects of the induced mutations on the allergenicity, i.e. the ability to bind to the IgE antibodies of allergic patients, of the modified recombinant allergens is determined qualitatively and quantitatively by means of the EAST inhibition test. […] The extent of the immunochemical relatedness (cross reactivity) can also be quantified. This EAST inhibition test only takes the reaction with IgE antibodies into account.
The binding of the allergens by the IgE antibodies is the basic prerequisite for the allergen-specific activation of the effector cells (mast cells, basophils, inter alia) in type I allergy. The allergen-specific inhibition of the enzyme/allergen sorbent test (EAST) is the best means for qualitatively and quantitatively recording the binding of the allergens to IgE anti-bodies. The EAST inhibition test is carried out as follows. Microtitre plates are coated with allergen (natural or recombinant Ph1 p 5 or Ph1 p 5b) (1 μg/ml). After the unbound allergen molecules have been removed by washing, non-specific plastic binding sites are blocked with bovine serum albumin (0.5%). […] from allergic patients, as a representative pool of 10-30 donors or as an individual serum, is incubated, in a suitable dilution, with the allergen-coated microtritre plates. The bound allergen-specific IgE antibodies are quantified using enzyme-coupled anti-IgE antibodies (e.g. alk. phosphatase-a-IgE antibodies). This binding is inhibited by soluble allergen or the substance to be tested (allergen mutants) in dependence on the concentration. The inhibition curve obtained with the purified natural allergen Ph1 p 5b is used as the reference.

[7] = test system: Phl p 5b-reactive T cell clones (TCCs) from allergic patients; test: Proliferative reaction of Phl p 5b-reactive T cell clones ([3H]-thymidine incorporation); type: cell-based, human; conditions: final concentration 0.3 μM
Method: (§1) 40 ml of heparinized blood were obtained from each patient. Peripheral mononuclear cells (PBMC) were then isolated from this blood sample by means of the customary method using density gradient centrifugation. Analogous cell isolations were carried out at a later stage when it was necessary to obtain irradiated autologous antigen-presenting cells (APC) for characterizing the TCL and TCC further. After the PBMC had been counted, TCL which reacted to group 5 allergens in vitro were established as follows and as has already been described in detail elsewhere (Lit. 1): in each well of 24-well microculture plates, from 1.5 to 2.0×10^6 PBMC in 1 ml of culture medium (UltraCulture) were stimulated for 7 days in the added presence of natural Phl p5 allergens (in each case 10 μg/well) which had been purified by immunoaffinity chromatography. A total of from 8 to 10 of these cultures were set up. The isolation of Phl p5 by means of immunoaffinity chromatography has been described in detail (Lit. 2). At the end of the 7 days of culture, IL-2 (from 10 to 20 IU/well) was added to the cell cultures for a further 5 to 7 days. All the individual cultures were then pooled and the T cell blasts were enriched by means of density gradient centrifugation; the TCL which were obtained were then tested in a specific lymphocyte proliferation test (see Lit. 1 as well). For this, 2×10^4/ml TCL blasts were in each case cultured with 5×10^4/ml irradiated autologous APCs in triplicate samples in 96-well microculture plates. 10-20 μg of Phl p5 allergen were added as the specific antigen stimulus. After 56 hours of incubation, ^3H-labelled thymidine (1 μCi/well) was pipetted into the microcultures. After a further 16 hours, the radioactivity which had been incorporated into the proliferating T cell blasts was measured in a beta counter (Matrix 96). The results were calculated, as the arithmetic mean of the multiple samples, in counts per minute (cpm). The criterion for the quality of the TCL was the stimulation index, which was obtained by relating the cpm values with Phl p5 addition to those without Phl p5 addition.
After a TCL had been cloned (see below), the specificity of the isolated TCCs were determined as has just been described. Stimulation indices of at least 5 were rated as being positive for the TCCs. The determination of T cell epitopes for defining the T cell-reactive regions on group 5 allergens was also carried out using specific proliferation tests, with 1-2 μg of synthesized dodecapeptide/ml being used for this purpose in each case (see below).
The reactivity of the recombinant Ph1 p 5b mutants was tested on established T cell clones (TCCs) of known specificity. The TCCs derive from patients who are allergic to grass pollen (see Ex. 1) and are directed against the T cell-reactive regions A (FIG. 7), B (FIG. 8) and C (FIG. 9). The T cell reactivity was measured by stimulating the clones to proliferate.

[8] = test system: Phl p 5b-reactive T cell lines (TCLs) from allergic patients; test: Proliferative reaction of Phl p 5b-reactive oligoclonal T cell lines ([3H]-thymidine incorporation); type: cell-based, human; conditions: secondary activator 0.3 μM
Method: In the second phase, oligoclonal T cell lines, which have been established by repeated stimulation with the relevant allergens, are employed for the testing. Once again, only those modified recombinant allergens which at least give rise to a stimulation index (SI) of 50% of the SI of the wild type are taken into consideration.
as §1
The oligoclonal T cell lines (TCLs) from 8 patients who were allergic to grass pollen (see Ex. 1) were established by repeated activation with natural Ph1 p 5b (a+b) or recombinant rPh1 p 5b or 5a+5b.
The proliferative reaction of these TCLs was tested using the rPh1 p 5b mutants (FIG. 10).

[9] = allergic patient serum pool Bor 18/100
[10] = allergic patient serum pool We 6/97
[11] = individual allergic patient serum II/3
[12] = individual allergic patient serum II/12
[13] = individual allergic patient serum II/17

IC50 [1]: 6.1 nM
allergenic potency (Prel) at 25% inhibition (relative to native Phl p 5b) [1]: 1
allergenic potency (Prel) at 50% inhibition (relative to native Phl p 5b) [1]: 1
inhibition value (inhibitor concentration at 25% inhibition) [1]: 5.1e-10 mol/L
IC50 [2]: 4.2 nM
allergenic potency (Prel) at 25% inhibition (relative to native Phl p 5b) [2]: 1
allergenic potency (Prel) at 50% inhibition (relative to native Phl p 5b) [2]: 1
inhibition value (inhibitor concentration at 25% inhibition) [2]: 3.3e-10 mol/L
IC50 [3]: 5.9 nM
allergenic potency (Prel) at 25% inhibition (relative to native Phl p 5b) [3]: 1
allergenic potency (Prel) at 50% inhibition (relative to native Phl p 5b) [3]: 1
inhibition value (inhibitor concentration at 25% inhibition) [3]: 5.1e-10 mol/L
IC50 [4]: 6.8 nM
allergenic potency (Prel) at 25% inhibition (relative to native Phl p 5b) [4]: 1
allergenic potency (Prel) at 50% inhibition (relative to native Phl p 5b) [4]: 1
inhibition value (inhibitor concentration at 25% inhibition) [4]: 5.2e-10 mol/L
IC50 [5]: 2.6 nM
allergenic potency (Prel) at 25% inhibition (relative to native Phl p 5b) [5]: 1
allergenic potency (Prel) at 50% inhibition (relative to native Phl p 5b) [5]: 1
inhibition value (inhibitor concentration at 25% inhibition) [5]: 2.2e-10 mol/L
B1: natural Phl p 5b, purified by affinity chromatography (protein)
chain: ADAGYAPATPAAAGAAAGKATTEEQKLIEDINVGFKAAVAAAASVPAADKFKTFEAAFTSSSKAAAAKAPGLVPKLDAAYSVAYKAAVGATPEAKFDSFVASLTEALRVIAGALEVHAVKPVTEEPGMAKIPAGELQIIDKIDAAFKVAATAAATAPADDKFTVFEAAFNKAIKESTGGAYDTYKCIPSLEAAVKQAYAATVAAAPQVKYAVFEAALTKAITAMSEVQKVSQPATGAATVAAGAATTAAGAASGAATVAAGGYKV

IC50 [6, 9]: 5 nM
IC50 [6, 10]: 1400 nM
IC50 [6, 11]: 14 nM
IC50 [6, 12]: 73 nM
IC50 [6, 13]: 4.7 nM
B2: r Phl p 5b: recombinant wild type Phl p 5b, 265 amino acids, SEQ ID NO 87 (protein)
chain: B1 chain
Inhibition value 25% (concentration of the inhibitor at 25% inhibition) [6, 9]: 2e-10 mol/L
Inhibition value 25% (concentration of the inhibitor at 25% inhibition) [6, 10]: 3e-10 mol/L
Inhibition value 25% (concentration of the inhibitor at 25% inhibition) [6, 11]: 5.6e-10 mol/L
Inhibition value 25% (concentration of the inhibitor at 25% inhibition) [6, 12]: 8.7e-10 mol/L
Inhibition value 25% (concentration of the inhibitor at 25% inhibition) [6, 13]: 2.1e-10 mol/L
Allergenic potency (Prel) 25% ([6]; individual serum II/3): 0.9030
Allergenic potency (Prel) 25% ([6]; individual serum II/12): 0.597
Allergenic potency (Prel) 25% ([6]; individual serum II/17): 1.045
Allergenic potency (Prel) 25% ([6]; serum pool Bor 18/100): 1.709
Allergenic potency (Prel) 25% ([6]; serum pool We 6/97): 1.697
Allergenic potency (Prel) 50% ([6]; individual serum II/3): 0.4190
Allergenic potency (Prel) 50% ([6]; individual serum II/12): 0.093
Allergenic potency (Prel) 50% ([6]; individual serum II/17): 0.5450
Allergenic potency (Prel) 50% ([6]; serum pool Bor 18/100): 0.8410
Allergenic potency (Prel) 50% ([6]; serum pool We 6/97): 0.4400
EAST inhibition curve / inhibitory effect (in words) ([6]; serum pool Bor 18/100 (20 donors), FIG. 1): binding curves which are similar to that obtained with natural Ph1 p 5b
Incorporation of [3H]-thymidine into TCC CB 2 (stimulation index class) ([7]; T cell-reactive region A): +++ (>10 (+++))
Incorporation of [3H]-thymidine into TCC CB 14 (stimulation index class) ([7]; T cell-reactive region A): +++ (>10 (+++))
Incorporation of [3H]-thymidine into TCC JR 13 (stimulation index class) ([7]; T cell-reactive region A): +++ (>10 (+++))
Incorporation of [3H]-thymidine into TCC JR 15 (stimulation index class) ([7]; T cell-reactive region A): +++ (>10 (+++))
Incorporation of [3H]-thymidine into TCC DW8 (stimulation index class) ([7]; T cell-reactive region B): + (1-2 (+))
Incorporation of [3H]-thymidine into TCC UZH2 (stimulation index class) ([7]; T cell-reactive region B): +++ (>10 (+++))
Incorporation of [3H]-thymidine, stimulation index SI, 1st exp. ([7]; T cell-reactive region C): 11.0
Incorporation of [3H]-thymidine, stimulation index SI, 2nd exp. ([7]; T cell-reactive region C): 7.0
Incorporation of [3H]-thymidine, stimulation index SI, 3rd exp. ([7]; T cell-reactive region C): 5.5
Incorporation of [3H]-thymidine, stimulation index class (last column, no head) ([7]; T cell-reactive region C): ++ (5-10 (++))
Incorporation of [3H]-thymidine into TCL 1 Wöl (stimulation index class) ([8]; primary stimulator n Phl p 5): + (1-2 (+))
Incorporation of [3H]-thymidine into TCL 2 Eic (stimulation index class) ([8]; primary stimulator n Phl p 5): + (1-2 (+))
Incorporation of [3H]-thymidine into TCL 3 Fre (stimulation index class) ([8]; primary stimulator n Phl p 5): + (1-2 (+))
Incorporation of [3H]-thymidine into TCL 4 Mer (stimulation index class) ([8]; primary stimulator n Phl p 5): + (1-2 (+))
Incorporation of [3H]-thymidine into TCL 5 17.4 (stimulation index class) ([8]; primary stimulator r Phl p 5): + (1-2 (+))
Incorporation of [3H]-thymidine into TCL 6 Mah (stimulation index class) ([8]; primary stimulator r Phl p 5a, r Phl p 5b): +++ (>10 (+++))
Incorporation of [3H]-thymidine into TCL 7 19.2 (stimulation index class) ([8]; primary stimulator r Phl p 5b): +++ (>10 (+++))
Incorporation of [3H]-thymidine into TCL 8 20.1 (stimulation index class) ([8]; primary stimulator r Phl p 5b): +++ (>10 (+++))

IC50 [6, 9]: 4.2 nM
IC50 [6, 10]: 6.1 nM
IC50 [6, 11]: 5.9 nM
IC50 [6, 12]: 6.8 nM
IC50 [6, 13]: 2.6 nM
B3: n Phl p 5b: purified natural allergen Phl p 5b of timothy grass (Phleum pratense), reference of the EAST inhibition (protein)
chain: B1 chain
Inhibition value 25% (concentration of the inhibitor at 25% inhibition) [6, 9]: 3.3e-10 mol/L
Inhibition value 25% (concentration of the inhibitor at 25% inhibition) [6, 10]: 5.1e-10 mol/L
Inhibition value 25% (concentration of the inhibitor at 25% inhibition) [6, 11]: 5.1e-10 mol/L
Inhibition value 25% (concentration of the inhibitor at 25% inhibition) [6, 12]: 5.2e-10 mol/L
Inhibition value 25% (concentration of the inhibitor at 25% inhibition) [6, 13]: 2.2e-10 mol/L
Allergenic potency (Prel) 25% ([6]; individual serum II/3): 1.000
Allergenic potency (Prel) 25% ([6]; individual serum II/12): 1.000
Allergenic potency (Prel) 25% ([6]; individual serum II/17): 1.000
Allergenic potency (Prel) 25% ([6]; serum pool Bor 18/100): 1.000
Allergenic potency (Prel) 25% ([6]; serum pool We 6/97): 1.000
Allergenic potency (Prel) 50% ([6]; individual serum II/3): 1.000
Allergenic potency (Prel) 50% ([6]; individual serum II/12): 1.000
Allergenic potency (Prel) 50% ([6]; individual serum II/17): 1.000
Allergenic potency (Prel) 50% ([6]; serum pool Bor 18/100): 1.000
Allergenic potency (Prel) 50% ([6]; serum pool We 6/97): 1.000
